Reference: article PMC4161341 (PLoS ONE, 2014)

Biological target: T1, Vaccinia Virus, Western Reserve, L1R Protein with C-Terminal Histidine Tag (Vaccinia virus, strain Western Reserve, UniProt P07612)
T1 construct: also called L1 antigen; recombinant L1 antigen; source: obtained through BEI Resources (NR-2625), recombinant from baculovirus
Experiment: SPR; […] (10 µg/ml, […], dissociation 600 s; […]
Conditions: both partners purified

Row | Binder | Kd | koff | kon
1 | L1-C5 (VHH, llama sdAb of the L1-H7 family; has a single N to Y substitution in framework 3 not seen in other members of the family; also called sdAb L1-C5) VHH: EVQLQASGGGLVQAGGSLRLSCIASGRAFSTTNMGWFRQAPGKEREFVTRVNWSGGVTSYADSVKGRFTLSRDYTKNTVYLQMNSLKPEDTAVYYCAGSTVWSTDRAHYNYWGQGTQVTVSS | 4 nM | 0.032 s⁻¹ | 7.2e+06 M⁻¹ s⁻¹
2 | L1-E6 (VHH, llama sdAb of the L1-H7 family; also called sdAb L1-E6) VHH: EVQLQASGGGLVQAGGSLRLSCIASGRAFSTTNMGWFRQAPGKEREFVTRVNWSGGVTSYADPVKGRFTLSRDNTKNTVYLQMNSLKPEDTAVYYCAGSTVWSTDGAHYNYWGQGTQVTVSS | 2.6 nM | 0.001 s⁻¹ | 390000 M⁻¹ s⁻¹
3 | L1-H7 (VHH, llama sdAb of the L1-H7 family; also called sdAb L1-H7) VHH: EVQLQASGGGLVQAGGSLRLSCIASGRAFSTTNMGWFRQAPGKEREFVTRVNWSGGVTSYADSVKGRFTLSRDNTKNTVYLQMNSLKPEDTAVYYCAGSTVWSTDRAHYNYWGRGTQVTVSS | 1.5 nM | 0.00087 s⁻¹ | 560000 M⁻¹ s⁻¹
4 | L1-G2 (VHH, llama sdAb of the L1-H7 family; also called sdAb L1-G2) VHH: EVQLQASGGGLVQAGGSLRLSCTASGRAFSTTNMGWFRQAPGKEREFVTRVNWSGGVTSYADSVKGRFTLSRDNTKNTVYLQMDSLKPEDTAVYYCAGSTVWSTDRKHYNYWGQGTQVTVSS | 1.9 nM | 0.001 s⁻¹ | 530000 M⁻¹ s⁻¹
5 | L1-G2+ (VHH, also called disulfide mutant of L1-G2) VHH: EVQLQASGGGLVQAGGSLRLSCTASGRAFSTTNMGWFRQAPGKEREFVCRVNWSGGVTSYADSVKGRFTCSRDNTKNTVYLQMDSLKPEDTAVYYCAGSTVWSTDRKHYNYWGQGTQVTVSS | 1 nM | 0.0021 s⁻¹ | 2.1e+06 M⁻¹ s⁻¹
6 | L1-E2 (VHH, llama sdAb, only member of the L1-E2 family; also called sdAb L1-E2) VHH: EVQLQASGGGLVQPGGSLRLSCAASGFSISSATMSWVRQAPGKGLEWVSTVQDGAGIISSADSAKARFTISRDSAKNTLYLQMNSLKPEDTAVYYCRTVVFGRILRGQGTQVTVSS | 0.7 nM | 0.0045 s⁻¹ | 6.5e+06 M⁻¹ s⁻¹
7 | L1-H2 (VHH, llama sdAb of the L1-H2 family; also called sdAb L1-H2) VHH: EVQLQASGGGLVQAGGSLRLSCAASGRTLSTGVMGWFRQLPGKEREFVARITWIAGSSLYADSVKGRFTISRDNTNNTVYLQMNALKPEDTAVYYCAANLAGNSWPYKTPMDYDSWGQGTQVTVSS | 1.8 nM | 0.0021 s⁻¹ | 1.2e+06 M⁻¹ s⁻¹
